# Measured values reported in patent US20060183125A1.
# Key:
# [1] = target: human TREM-1-Ligand (human); experiment: flow cytometry on peripheral neutrophils of a sepsis patient, 0.2 µg huTREM-1/IgM
# [2] = target: human TREM-1-Ligand (human); experiment: flow cytometry on peripheral neutrophils of a sepsis patient, 1 µg huTREM-1/IgM
# [3] = target: human TREM-1-Ligand (human); experiment: flow cytometry, double staining with anti CD15, CD15 high neutrophils of a septic patient
# [4] = target: human TREM-1-Ligand (human); experiment: flow cytometry, double staining with anti CD15, CD15 low neutrophils of a septic patient
# [5] = target: murine TREM-1-Ligand (mouse); experiment: flow cytometry, high Ly-6G peritoneal cell subset, septic (CLP) mouse
# [6] = target: murine TREM-1-Ligand (mouse); experiment: flow cytometry, tetramer staining of blood cells of septic mice 6 hours after CLP induction
# [7] = target: murine TREM-1-Ligand (mouse); experiment: flow cytometry, low Ly-6G peritoneal cell subset, control mouse
# [8] = target: murine TREM-1-Ligand (mouse); experiment: flow cytometry, peritoneal cells of a representative control mouse
# [9] = target: murine TREM-1-Ligand (mouse); experiment: flow cytometry, low Ly-6G peritoneal cell subset, septic (CLP) mouse
# [10] = target: murine TREM-1-Ligand (mouse); experiment: flow cytometry, peritoneal cells of a representative septic (CLP) mouse
percent of cells stained positive [1],percent of cells stained positive [2],percentage of TREM-1-Ligand expressing cells [3],percentage of TREM-1-Ligand expressing cells [4],frequency of double positive population [5],percent of Ly-6G positive cells positive [6],frequency of double positive population [7],"frequency of Ly-6G positive, murine TREM-1-Receptor/IgG positive cells [8]",frequency of double positive population [9],"frequency of Ly-6G positive, murine TREM-1-Receptor/IgG positive cells [10]",Substance
45%,80%,2%,38%,,,,,,,human TREM-1-Receptor/human IgM fusion protein (from UniProt Q9NP99 21-200)
,,,,33%,2%,40%,8.8%,77%,35%,murine TREM-1-Receptor/human IgG fusion protein (from UniProt Q9JKE2 21-202) (Fc fusion)
